Assay: soluble on expression in E. coli; label from the status in PepcDB or PDB records

Sequence | soluble on expression in E. coli
MGHHHHHHSHMTIYDQHMHTLYSFDSEAQLRDYLTQTKAPVVTTEHLEFDNPDDGGRDNLPDYARMKATQAALAEKFPNEFLLGIEAGYFAPADARFRQYLDNHDFDLTLLSFHHDGHYDYLDEQLITMPAKQQLEDYFERMLAGLKRFHDADVLAHFDYALRRFDITPDQLEAWGKPLLDQIFTIAVENDLALELNTKSMYRWGNAPLYDQAIAWYQAAGGHLFTIGSDAHEGPQYEANFADALAMLKRHGVKEIATYRQHQRTMVPIEPPVIDADNAY | soluble
MDDLADCREVFAYFDSKGDERISVQQVGDVLRALGQNPTEAEIHKCVGSFDREARLSFEDFVPIFQSVSKNREKHTVEEFVEGLSHFDKEGNGMINVAELRHLLTTLGERLSDEDVDQLLSGHNDSHGNVNISDFVRAVMNS | soluble
MLFDHLRDEVMRLDAGITQEVLKLYIAFKAETNFVDVVPQKSRLRLSLNMQFHELVDPKGIAKDVTNVGRWGNGDVEIGFSDLAQLPYIMGLIRQAFEKQMESALV | not soluble
MDTEDTSGYSSLKSSPQSSDENFFKRLQWGKIRLELKTPEFLKESSELEIEKNEKSGIQKCGENEGENEEKCEFRPVVTPNEIDSHKEWYHRLLMLKLEYKRGERGAFPPFPPPPLPSMMIAASNAVSFNAFDEVKRAAQAKTAKSPSTSSLERRAQRFCPADFQPLPPPHIYIEMIRTLAPHQYIDLTYALAGSVLLEMGVKIPDRYPNLPPKIEPYRDIESEEAAHWTEMSSQSSSEGEYSDASESAKLVQTLNRRKNKERRETRKIRIVASMLTSSTFSMKKKRKNEGLDFKHETFPRDYDYKEKTLSTFIPPRIARRPPIPPPQFFFPPSPHFSREPHSLPPMPMMLPIPLPPMSLSSPISPIHFQKNLQSTPERPSRTDSSRVHAKQIKNDIIIVEKVTDV | not soluble
MSDPRPARAVVVGIDGSRAATHAALWAVDEAVNRDIPLRLVYVIDPSQLSAAGEGGGQSAARAALHDASRKVEATGQPVKIETEVLCGRPLTKLMQESRSAAMLCVGSVGLDHVRGRRGSVAATLAGSALCPVAVIHPSPAEPATTSQVSAVVAEVDNGVVLRHAFEEARLRGVPLRAVAVHAAETPDDVEQGSRLAHVHLSRRLAHWTRLYPEVRVDRAIAGGSACRHLAANAKPGQLFVADSHSAHELCGAYQPGCAVLTVRSANL | not soluble
NKYNKIANELIKIIGEDNIISITHCATRLRVMVKDREIINDKKVEKVDEVKGVFFTSGQYQIILGTGIVNKVYAEVEKMGLKTLSKKEQDELVKNNE | soluble
MSLNIKEASEKSGVSADTIRYYERIGLIPPIHRNESGVRKFGAEDLRWILFTRQMRRAGLSIEALIDYLALFREGEHTLEARAELLKKQRIELKNRIDVMQEALDRLDFKIDNYEGHHHHHH | not soluble
MKQDVILVLDCGATNVRAIAVDRQGKIVARASTANASDIAAENSAWHQWSLDAILQRFADCCRSLSSALSECVVRGITVTTFGVDGALVDAQGKLLYPVISWKCPRTAAVMETIERFISPRQLQTLSGVGAFSFNTLYKLVWLKENHPRLLEQAHCWLFISSLINHRLTGEFTTDITMAGTSQLLDIHQRDFSPEILQATGLARRLFPRIVEAGAPIGTLQTDAARLLGLPAGVPVISAGHDTQFALFGAGAQQGEPVLSSGTWEILMVRSGQVDTSLLSQYPGSTCELDSQSGLYNPGMQWLASGVLEWVRKLLWTPETPWQTLIDEARAIPAGAEGVRMQCDLLACQNAGWQGVTLNTTRGHFYRAALEGLTAQLQRNLRTLEKIGHFNATELLLVGGGSRNALWNQIKANQLDIPIKVLDDAETTVAGAAMFGWYGVGEFSSPEQARAQVNYQYRYFWPQTEPEIIEGV | not soluble
MSFVVANTEFVSGAAGNLARLGSMISAANSAAAAQTTAVAAAGADEVSAAVAALFGAHGQTYQVLSAQAAAFHSQFVQALSGGAQAYAAAEATNFGPLQPLFDVINAPTLALLNRPLIGNGADGTAANPNGQAGGLLIGNGGNGFSPAAGPGGNGGAAGLLGHGGNGGVGALGANGGAGGTGGWLFGNGGAGGNSGGGGGAGGIGGSAVLFGAGGAGGISPNGMGAGGSGGNGGLFFGNGGAGASSFLGGGGAGGRAFLFGDGGAGGAALSAGSAGRGGDAGFFYGNGGAGGSGAGGASSAHGGAGGQAGLFGNGGEGGDGGALGGNGGNGGNAQLIGNGGDGGDGGGAGAPGLGGRGGLLLGLPGANGT | not soluble
MGSDKIHHHHHHMTGIPTHKAVQQSDFGIFAKEVSPFSPNRTINYVHRDDYYILGVVKSGTCHVSIDFKEYVFSAGDVVCTQPNQVHHIIDTGNADVLLLFIDGVFIDTPTKQIIAEYVLSPVPFKINDIQYTDLGQLFSMILRRMNGGNPDCKSKAVIQNLSCAIVGIITDNIQKYIGQNHKNRRHIEITLALKALFSEEKQLNRSVSYYAEALHISPVYLNEVVKNVTGESVSKYIQNELILRAKRMLVYTSLNVREISIDLGIEDYAYFTRLFTKAVGVNPTSYRKKYLE | not soluble
MNTETSTQSAPSDTYDTSIYYNSSPRVTANDITTLTSFAAPAPQVLDYANTQYDIYRNQPAYYLPSYAPTAPTTFYSDFANFNVTRSQDFASVPAVANSSDVKPIIIKQEKSTPNATELIIQSRVDSQHEDTTTSTAGGAGVGGPRRTKFVLSVDRRKAATMRERRRLRKVNEAFEVVKQRTCPNPNQRLPKVEILRSAIDYINNLERMLQQAGKMTKIMEQNQHLQMTQQINGAPPHDYVTSSHFASSSYNPENMFDDDDLTDSDDDRDHHKLGNAVDLRRRNSLDRLSRIVASIPNEEAMTDEQLLQPANDVIDGEKKLEML | not soluble
PFEGNRVDIYTGGYSKLQALLRELQKARLHIHMEYYIFEDDPVGRLVRDVLIEKAREGVEVRVIYDDVGCWHVPHRFFEEMRDAGIEVRSFLKVRFPLFTSKVNYRNHRKIVVIDGRIGFIGGMNLAERYMRGFSWGIWRDTHILLEGKAVHGLQTAFLLDWYFVDRTLITASRYFPKIEAYGNSLVQIVTSEP | not soluble
MALANFDGPFDLLLQLIHSHKLDITEVALAQVTDEFIAYTKTLSSSAEDLDEVTEFLVVASTLLDLKAARLVPRGEVDSEEDLALLETRDLLFARLLQYRAYKQVADLFADWQRDAARAYPATLSLEEHHANLLPEVKIGKNADEFAELAAAVFRPKPDHVDTGHIHQVAVSVPEQAGRILNTLKVAGENTWVTFGALIADAELNMIVVGRFLALLELYKARAIGIEQPEPLQDMSVAWTGLDVDPAVVAASNWE | soluble
MNSSRPYLVRALYEWIVDNDCTPHILVNAEFAGVKVPPGYASDGQIVLNVSPSAVRHLHMDNEAVSFEGRFGGVAQSLYIPALAVMAIYARENGQGMVFDLEQPGPVDDEPGDDDGGPSDEPPRPSGRPSLKVVK | not soluble
MIKIPRGTQDILPEDSKKWRYIENQLDELMTFYNYKEIRTPIFESTDLFARGVGDSTDVVQKEMYTFKDKGDRSITLRPEGTAAVVRSYIEHKMQGNPNQPIKLYYNGPMFRYERKQKGRYRQFNQFGVEAIGAENPSVDAEVLAMVMHIYQSFGLKHLKLVINSVGDMASRKEYNEALVKHFEPVIHEFCSDCQSRLHTDPMRILDCKVDRDKEAIKTAPRITDFLNEESKAYYEQVKAYLDDLGIPYTEDPNLVRGLDYYTHTAFELMMDNPNYDGAITTLCGGGRYNGLLELLDGPSETGIGFALSIERLLLALEEEGIELDIEENLDLFIVTMGDQADRYAVKLLNHLRHNGIKADKDYLQRKIKGQMKQADRLGAKFTIVIGDQELENNKIDVKNMTTGESETIELDALVEYFKK | soluble
MTPMKTYDLIVIGTGPGGYHAAIRAAQLGLKVLAVEAGEVGGVCLNVGCIPTKALLHAAETLHHLKVAEGFGLKAKPELDLKKLGGWRDQVVKKLTGGVGTLLKGNGVELLRGFARLVGPKEVEVGGERYGAKSLILATGSEPLELKGFPFGEDVWDSTRALKVEEGLPKRLLVIGGGAVGLELGQVYRRLGAEVTLIEYMPEILPQGDPETAALLRRALEKEGIRVRTKTKAVGYEKKKDGLHVRLEPAEGGEGEEVVVDKVLVAVGRKPRTEGLGLEKAGVKVDERGFIRVNARMETSVPGVYAIGDAARPPLLAHKAMREGLIAAENAAGKDSAFDYQVPSVVYTSPEWAGVGLTEEEAKRAGYKVKVGKFPLAASGRALTLGGAEGMVKVVGDEETDLLLGVFIVGPQAGELIAEAALALEMGATLTDLALTVHPHPTLSESLMEAAEAFHKQAIHILNR | soluble
MHISEVKTAFKIADVEYVKDSTKLNFNYLKDLKDENNQPLSQNILTQNVARVYLIVVNGEIKKIGGSQADGGIKSTLNIYKDGGVKGRPNIRSFGVWYFLYHTILTGAKIEFYMIYQPNFETQVKGLFGFCAIKDASISYKLLEQACLTDYRNNSNDALPEWNVQEQGKD | not soluble
MKDGMRVGERFTHDFVVPPHKTVRHLYPESPEFAEFPEVFATGFMVGLMEWACVRAMAPYLEPGEGSLGTAICVTHTAATPPGLTVTVTAELRSVEGRRLSWRVSAHDGVDEIGSGTHERAVIHLEKFNAKVRQKTPAG | soluble
MGSDKIHHHHHHMNIQDYPDRDMLAIDLANHLAGELEATLFTHDSATLAVAGGTTPGPVFDVLCAADLDWHRVMVLPTDERCVPQDHSRANARLIAERLLVNRAASARYLPLYLPGAEPEDCLAEVEALLTPALPLSVLVLGMGEDMHTASLFAGMPGLAAALDADAPALAVARPETQPENRITLTAPVLNGALSKHLIIYGAAKRKALERAMSMHPEEAPIAAVLDGITVHWAE | not soluble
MHTRAEKLEAFGRLLDVLDTLREQCPWDRKQTNESLRTNTIEEVYELSEALLGECPDDIRKELGDVLLHVAFYAKIGEEKGQFDIASVCHALCDKLIYRHPHIYGNVQVENAAEVVRNWEQLKLREKDGNKSVLSGVPKSLPALVKSYRMQEKAAGVGFDWEQREQVWPKVEEELNEVRGAIVSEDPDAMEAEFGDLLFAVVNAARLYGINPDNALERTNRKFDSRFSYVEQRAKQQGKALRDMTLSEMDALWNEAKQKGL | not soluble
GPHMAVVDDLAPGMDSSPPSEDYGRQPPQDLAAEQSVLGGMLLSKDAIADVLERLRPGDFYRPAHQNVYDAILDLYGRGEPADAVTVAAELDRRGLLRRIGGAPYLHTLISTVPTAANAGYYASIVAEKALLRRLVEAGTRVVQYGYAGAEGADVAEVVDRAQAEIYDVADRRLSEDFVALEDLLQPTMDEIDAIASSGG | soluble
MLARCLAFSYPASTFLIFFLRRRLSHHLWHPTYPRVLNSVRPAFRLAPFVSQKDTDMTVEQPIQVDTLVVGAGQAGVAMSEHLSKLGVPHLVLERSRVAEAWRTGRWDSLVANGPAWHDRFPGMEFDVAADAFPAKDQVADYFEAYARKFNAPIRTGVEVRKVLRNVGRPGFTVETSEGLIQAQRVVAATGPFQRPVIPPIATANDRLTQIHSAEYRNPQQLPEGAVLVVGAGSSGVQIADELQRAGRRVYLSVGAHDRPPRSYRNRDFCWWLGVLGEWDAEIAKPGREHVTIAVSGARGGQTIDFRALAHQGITLVGLTKAFAGEHVTFQADLLDNLARGDENYLALLDAADAYIARNGLDLPLEPEARRRLPDPDCVKQPILELDLQQAGITSIIWATGYAVDFSWLQVDTFSEQGKPLHQRGVSREPGVYFLGLPWLSRRGSSFIWGVWHDAKHVADHIATQRKYQAYSDARPPAATAEAPALNLSPVGAHLEHHHHHH | not soluble
MGHHHHHHSHAWSGVLEWQEKPKPASVDANTKLTRSLPCQVYVNHGENLKTEQWPQKLIMQLIPQQLLTTLGPLFRNSRMVQFHFTNKDLESLKGLYRIMGNGFAGCVHFPHTAPCEVRVLMLLYSSKKKIFMGLIPYDQSGFVNGIRQVITNHKQVQQQKLEQQQRGMGGQQAPPGLGPILEDQAR | soluble

Reference: the DeepSol protein solubility set
